Results taken from the supplement of paper PMC12764529.
± gives the half width of the 95% confidence interval.

How the values were obtained:
[1] = folding stability dG unfold from trypsin proteolysis; higher = more stable
Description: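 Folding stability of de novo designed mini-proteins (<80 aa, no Cys; designed by TrROS, TrMRF, ProteinMPNN and the joint model) was measured by cDNA display proteolysis with trypsin and chymotrypsin. Each protease was used at 11 concentrations in a threefold dilution series plus a no-protease condition. K50 was inferred by Bayesian fitting of sequencing counts, and dG unfold was derived against a sequence-predicted unfolded-state K50 (Tsuboyama et al. method). Sequences shown include variable-length N-terminal GS-type padding (SAGGSAGG...) inside a display construct carrying a PA tag. Rows were kept only if the AF2 dimer inter-PAE was >15, to exclude likely homo-oligomers.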

[2] = folding stability dG unfold (combined trypsin and chymotrypsin); higher = more stable
Method in brief: (§1)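 Sequencing followed digestion of designed mini-proteins with trypsin and chymotrypsin, each at 11 concentrations in threefold dilutions together with a no-protease condition. The mini-proteins were under 80 residues, had no cysteine, sat in a PA-tagged cDNA display construct, and were kept only if AlphaFold2 dimer inter-PAE was above 15. From the counts, Bayesian fitting gave K50, and unfolding free energy was derived against a sequence-predicted unfolded-state K50 and a shared folded-state K50, per protease or combined.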

[3] = folding stability dG unfold from chymotrypsin proteolysis; higher = more stable
Method in brief: as §1

Sequence	folding stability dG unfold [1]	folding stability dG unfold [2]	folding stability dG unfold [3]
SAGGSAGGSAGGSMTRVFVRKPDYWLEVEEYPDPKNPDRIRLTVKKKIPLSEVTPEELASAGGSAGGSAGGS [r4_316_JUSTAS]	-0.0403 ± 0.26 kcal/mol	–	–
SAGGSAGGSPRYQIPFEFPNGRNLYIQIERDPEEGQVKVDIMFPDGGTKEITVPPGEEIKIPWSAGGSAGGS [r12_922_TrROS]	-0.659 ± 0.62 kcal/mol	–	–
SAGGTATVEAALAALPADLPRGSLALHPETGLVEPLEPSPEDAVAYPVNPATGERYPLRVEADAVRLLSAGG [r13_803_JUSTAS]	–	-0.517 ± 0.15 kcal/mol	0.461 ± 0.079 kcal/mol
SAGGTIKGLPVEEIKDEIRDLFPDHPMKVDIEPIDEDEGYVRVEIEPPRPNGKTQRQEHTIPIRPDDSAGGS [r16_564_TrROS]	–	-0.64 ± 0.58 kcal/mol	-0.579 ± 0.14 kcal/mol
SAGGYPAEIEASNVKPEELKKAIEDAPWAKELDVEVEDSSPDGSVKAKFKANSKAEVKRFEKAVKDAFSAGG [r13_580_TrMRF]	–	< -1 kcal/mol	-0.448 ± 0.34 kcal/mol
SAGKLVVPILLEFPPGATLEEAKEAVEEAVEKLKESFPNAPDIEIKLVDVKVFKTEDDRYLVLALIEVGSAG [r5_985_TrMRF]	–	4.55 ± 0.43 kcal/mol	4.51 ± 0.23 kcal/mol
SAGKSKTITLEIYNKETNIIIKIEIEINGDEVTIKVYAFNKDGKLIAKAEIKFNKKTKKLEIKIEIKKLSAG [r5_747_TrROS_Hall]	–	> 6 kcal/mol	5.07 ± 0.33 kcal/mol
SAGLFDYLHKHNGLVRAALRRNGPPVVIPRLFRIEPDGDTYKLSVPDPDGVPQDWEVLDVEVFKPEDAISAG [r14_427_TrMRF]	–	-0.0844 ± 0.18 kcal/mol	0.275 ± 0.19 kcal/mol
SAGMEVVEKIAKELGYENVKVESITPQVSPSGTTTLTITVKISKPGSTKTFTITASPEEIEEEIKKALSSAG [r5_549_JUSTAS]	–	4.77 ± 0.23 kcal/mol	4.72 ± 0.14 kcal/mol
SAGMKPGETRHIPIRPGMPPEEFIEEIEAEGPVKIWFPGRKREIDSPDDIEDNFRNFPEPMPIEVKVPSAGG [r19_95_TrROS]	–	0.157 ± 0.28 kcal/mol	0.695 ± 0.12 kcal/mol
SAGMLVRIETLPPGAATEEVVPMTPEEAKEYLEAQGYTVSTDPANPTMTFSHPDATVTVTFEPVPADLRSAG [r5_248_JUSTAS]	–	0.365 ± 0.15 kcal/mol	0.79 ± 0.12 kcal/mol
SAGMPLPVKLVSFEPGANTLTIDRPYTNGPVTLSPDGTLTITGTLRDENGKPLETFTETIPVNWPEGTRSAG [r5_475_JUSTAS]	–	-0.568 ± 0.17 kcal/mol	-0.24 ± 0.14 kcal/mol
SAGMSTTTTAEIKAAVEAAAGEGLNVAPPTVTATDGTPISDDTVIEPGAPVPVTVDVPIDPVPPPELRSAGG [r19_278_JUSTAS]	–	-0.0815 ± 0.28 kcal/mol	0.336 ± 0.09 kcal/mol
SAGMTFEEEFVEEVDGGEMVKTKTLYEYDPSTNSITVLEEEVEKIPLPEVAPAPAPPEAMEERGAPGALSAG [r5_393_JUSTAS]	–	-0.115 ± 0.09 kcal/mol	0.254 ± 0.093 kcal/mol
SAGMTHVLPVPELSPEEVRALAEALPEGEELVLLVPGPELLAELRAAGFPVDPARFRLATPEERAELLASAG [r5_354_JUSTAS]	–	-0.189 ± 0.12 kcal/mol	0.857 ± 0.13 kcal/mol
SAGNMTNEQLQERIKEAVREDGWPTYRIKMSGPDGKNMNFQVDFPEERRQKIQKELGWDITEVEPRRYSAGG [r19_50_TrROS]	–	-0.578 ± 0.3 kcal/mol	-0.107 ± 0.38 kcal/mol
SAGSEVTLEITLTREVPSGKPVTLTETKTVPLAPSVPVEEVIKALKSPEWTAKVTLYTDGTPVTELTLDSAG [r5_278_JUSTAS]	–	0.176 ± 0.069 kcal/mol	0.604 ± 0.064 kcal/mol
SAGSVPQLIEDKLQEGSPNSSVEVKPVDTLGGTTVLEVKIERIDTSSGNGKLTSEDKIIEVPAGEELGSAGG [r19_8_JUSTAS]	–	0.0158 ± 0.086 kcal/mol	0.467 ± 0.049 kcal/mol
SAGTVTSSTTPLPDGSLLSTTTTTSPVSGTSVTTSTTTTTPVTPTTPPPPPRPVYPRYYDGVTEPALSLSAG [r5_169_JUSTAS]	–	-0.639 ± 0.18 kcal/mol	-0.12 ± 0.068 kcal/mol
SAKKHIPIPMDDPENLKKAIEEALENAENGKKVEIPIRSPDGPVWIEVDPKKKDIKIRNPGNGEERKIKSAG [r14_423_TrROS]	–	-0.0974 ± 0.53 kcal/mol	0.228 ± 0.084 kcal/mol
SAMIEVYRPPDRALVKLPSGKVEILDDPEAFEARVRAESDLPIRVTPLSPESPEFKALLEEIEKKLKGKSAG [r14_235_JUSTAS]	–	0.0988 ± 0.31 kcal/mol	0.192 ± 0.18 kcal/mol

Sequence	folding stability dG unfold [1]	folding stability dG unfold [2]	folding stability dG unfold [3]
SAMLTLPVESTDPARVEAAIAEARALAAQGARVEVPVRTPEGPLRFLVDPATGRVVRTDPATGATEVLPSAG [r14_423_JUSTAS]	–	-0.244 ± 0.13 kcal/mol	0.161 ± 0.17 kcal/mol
SAMTISVSETPDTGSLTVPMTLEPDTVEEVVEEVAKEIAPEEAEVSIEVTEVVPHPDSVTVTAKITVRPSAG [r14_345_JUSTAS]	–	-0.0666 ± 0.085 kcal/mol	0.361 ± 0.041 kcal/mol
SAMTTTTTTTDPASGRTVVTTTTPLPDGSVVTTEVDLSNPVRTTTTHPLTDGTPAPTTTTTALPADATLSAG [r14_64_JUSTAS]	–	-0.345 ± 0.12 kcal/mol	0.0551 ± 0.046 kcal/mol
SAMVPLEEAAKRVAEELGLEYTEITKIVPGTGELIVEFPGKKLTVTQDPATGSTTVEETFYDPETGVKKSAG [r14_270_JUSTAS]	–	< -1 kcal/mol	-1.35 ± 0.28 kcal/mol
SAPMTPAERARPRIKKLVNLLAEDGNFKVDIERDPGDPGVVVTIKLDPNSREKFAERLGIPRDELYDLISAG [r14_688_TrROS]	–	-0.373 ± 0.41 kcal/mol	-0.0457 ± 0.23 kcal/mol
SATKTINFDEFNDMMNQGDPPMLRHIIKEAREKDPDKEITIRMPKNPMFRDYIKEAFKEEGYPVKITPHSAG [r14_236_TrROS]	–	< -1 kcal/mol	-0.494 ± 0.36 kcal/mol
SAVTFPVPVTVTVPDADGGPPAVTVPVAVPVDPDAVRDAAIERLRRELAEAGRPDVTEEDLARPEFLAARSA [r9_263_TrMRF]	–	-0.335 ± 0.23 kcal/mol	0.622 ± 0.16 kcal/mol
SDPLGTPVPLTYRVLLTFPGVSRPFLGPGGVVRSVSVNPTVLVPGPANSYPAVRELAEPLGLSVSVTPLASA [r9_1209_TrMRF]	–	-0.871 ± 0.23 kcal/mol	-0.289 ± 0.21 kcal/mol
SGMEEIKIEVLSTETDESGTTYTETKIVLPDGKVIEATMTTTTVPDAAGNPVAVETLTLKDKTYTRTIPLSA [r9_271_JUSTAS]	–	0.101 ± 0.17 kcal/mol	0.448 ± 0.12 kcal/mol
SKPMPADELMEQHPNMIMIRTPNDKHIFINPEENEIFRFNPDEGRVYWIPGTLEEIEELVPDNGFEIWPFSA [r9_721_TrROS]	–	0.286 ± 0.22 kcal/mol	0.536 ± 0.21 kcal/mol
SMEEKEEVLSVEVDPVGEVVVTRTLVKKSAVDPTNPNNPVPLSLEEIVEPVPLPPPVPLPVPGNPRFEAASA [r9_357_JUSTAS]	–	0.154 ± 0.081 kcal/mol	0.77 ± 0.072 kcal/mol
SMEPPVPKIKARLVEVREEGERPRALFEIEEIEDAPPEIEELFKRGAKIEVEIPPDYPLKEDEEIEVDPLSA [r9_557_TrMRF]	–	0.0252 ± 0.28 kcal/mol	0.622 ± 0.15 kcal/mol
SMNVTEEVTVEELPSGEVLTETVVTEPSGVTTVTTTLASPPDRPVVETRTTTYPPDGSSTETSTVAPLPGSA [r9_1179_JUSTAS]	–	0.00729 ± 0.23 kcal/mol	0.507 ± 0.054 kcal/mol
SMVIPSSLGFEPALERVRALLPPERRYVVTELDPATGETTTATYDPATGTVTTTATPSAAGPPYVVVEVVSA [r9_1059_JUSTAS]	–	-0.251 ± 0.086 kcal/mol	0.345 ± 0.064 kcal/mol
SPKPFEMSIQIPGITPQALEKAVELARKDGWVENEIEPDPENNNVQIDVEMRGTPEKMHRAQNAIQEAIKSA [r9_652_TrROS]	–	-0.386 ± 0.21 kcal/mol	0.197 ± 0.18 kcal/mol
SPPVLYEITITFTYSDGTTVTKTINATVPRSQIDALIQKIIEEPGNKPYTKVTFNIYDKSTGTWTTITIDSA [r9_97_JUSTAS]	–	5.66 ± 0.23 kcal/mol	5.76 ± 0.18 kcal/mol
SSMVVINFPDTKKATPETLRKEIEPVAAPGKPVLVTVYPPTGVVLKTATVEPDKVEEVDPSHPYIVEIVASA [r9_264_JUSTAS]	–	-0.558 ± 0.16 kcal/mol	-0.377 ± 0.24 kcal/mol
SSTTTTTTDPSGYTYSTTVTTHPDSTTTTTGRVTVEKVGDRPVARTTTTTTTVSPGGATTTTTSTTTTLPSA [r9_69_JUSTAS]	–	0.0549 ± 0.082 kcal/mol	0.589 ± 0.1 kcal/mol
SSVTLLVPVEVTLPTPEGKGPSVTRFVPVPVPEEELRERLIEELREELKKKGEPDVTEEELKDPEVLEELSA [r9_263_JUSTAS]	–	-0.0887 ± 0.18 kcal/mol	0.51 ± 0.046 kcal/mol
STITDVEIYKMPPGEEYPFPNGRKIPPGDYMIYNEDNGHYMSADQIRRILQEIEQELEKLPPPKKPENDKSA [r9_517_TrROS]	–	-0.162 ± 0.43 kcal/mol	0.251 ± 0.29 kcal/mol
VNPRTLTYDPVTNRIDAATPDGTPVTVTAGSSGYTATVTDPATGAPTVVPLTEAELAALEADPAFPLATSNS [r1_18_JUSTAS]	–	-0.115 ± 0.056 kcal/mol	0.653 ± 0.057 kcal/mol
